Laboratory results from article PMC7216292, “A Multivalent ICAM-1 Binding Nanoparticle which Inhibits ICAM-1 and LFA-1 Interaction Represents a New Tool for the Investigation of Autoimmune-Mediated Dry Eye” (International Journal of Molecular Sciences, 2020).

Assays:
[1] = target: mouse ICAM-1 (endogenous) (mouse (endogenous in bEnd.3, NOD LGACs)) (UniProt P13597)
[2] = target: mouse ICAM-1 (endogenous) (mouse (endogenous in bEnd.3, NOD LGACs)) (UniProt P13597); remark: listed apart in the source
[3] = target: mouse ICAM-1 (endogenous) (mouse (endogenous in bEnd.3, NOD LGACs), UniProt P13597 28-537); test: cell-based or functional assay
[4] = target: the molecule itself; test: dynamic light scattering; 25 µM in PBS, pH 7.4, heated from 10 °C to 37 °C; assembly of monomers into nanoparticles above Tt1

Chain of mouse ICAM-1 (endogenous) (mouse (endogenous in bEnd.3, NOD LGACs)) (P13597 28-537): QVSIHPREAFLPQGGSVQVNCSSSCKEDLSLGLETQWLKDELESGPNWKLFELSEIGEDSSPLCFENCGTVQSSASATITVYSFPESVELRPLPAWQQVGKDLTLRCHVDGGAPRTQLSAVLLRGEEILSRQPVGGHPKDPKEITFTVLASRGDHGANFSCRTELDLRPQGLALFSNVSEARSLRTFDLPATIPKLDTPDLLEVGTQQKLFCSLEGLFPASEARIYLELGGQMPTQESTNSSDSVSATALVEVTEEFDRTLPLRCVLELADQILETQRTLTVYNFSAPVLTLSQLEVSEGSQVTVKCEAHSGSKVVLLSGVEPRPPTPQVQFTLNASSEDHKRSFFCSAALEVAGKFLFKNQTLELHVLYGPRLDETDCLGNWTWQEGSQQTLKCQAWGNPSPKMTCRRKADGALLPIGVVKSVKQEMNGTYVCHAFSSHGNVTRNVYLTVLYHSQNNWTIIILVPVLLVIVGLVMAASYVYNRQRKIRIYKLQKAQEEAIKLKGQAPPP
Chain of mouse ICAM-1 (endogenous) (P13597 28-537): as above

adhesion of fluorescently labelled splenocytes to TNF-α-induced bEnd.3 cells in the presence of 100 µM SI (negative control), percent of the control without ELP, plate reader [1] [%]	splenocyte binding to TNF-α-induced bEnd.3 cells in the presence of 100 µM SI (negative control), percent of the control without ELP, flow cytometry [1] [%]	proliferation of CFSE-labelled mouse CD4+ T-cells stimulated with MCC-loaded CH27 cells, in the presence of 100 µM SI (control), 5 days, percent of the untreated mixture [2] [%]	IC50 of inhibition of adhesion of PMA-activated, CFSE-labelled mouse splenocytes (LFA-1) to TNF-α-induced bEnd.3 cells (ICAM-1), flow cytometry, IBP-SI 10-150 µM, 45 min, 37 °C [3] [µM]	IC50 of inhibition of adhesion of PMA-activated, CFSE-labelled mouse splenocytes (LFA-1) to TNF-α-induced bEnd.3 cells (ICAM-1), fluorescence plate reader, IBP-SI 10-150 µM, 45 min, 37 °C [3] [µM]	Molecule	binding result [4]
76.2	86.9	91.2	–	–	lymphocyte function-associated antigen-1 (LFA-1) (from UniProt P24063 24-1162; P11835 24-771) (receptor)	–
–	–	–	62.7	81.2	IBP-SI (ICAM-1 binding peptide fused to the diblock elastin-like polypeptide S48I48) (designed binder, N-terminal leader; residue between IBP and the ELP; Unlabelled form; also called IBI-SI; source: E. coli BLR(DE3), purified by ELP-mediated phase separation) MGFEGFSFLAFEDFVSSIGVPGSGVPGSGVPGSGVPGSGVPGSGVPGSGVPGSGVPGSGVPGSGVPGSGVPGSGVPGSGVPGSGVPGSGVPGSGVPGSGVPGSGVPGSGVPGSGVPGSGVPGSGVPGSGVPGSGVPGSGVPGSGVPGSGVPGSGVPGSGVPGSGVPGSGVPGSGVPGSGVPGSGVPGSGVPGSGVPGSGVPGSGVPGSGVPGSGVPGSGVPGSGVPGSGVPGSGVPGSGVPGSGVPGSGVPGSGVPGSGVPGIGVPGIGVPGIGVPGIGVPGIGVPGIGVPGIGVPGIGVPGIGVPGIGVPGIGVPGIGVPGIGVPGIGVPGIGVPGIGVPGIGVPGIGVPGIGVPGIGVPGIGVPGIGVPGIGVPGIGVPGIGVPGIGVPGIGVPGIGVPGIGVPGIGVPGIGVPGIGVPGIGVPGIGVPGIGVPGIGVPGIGVPGIGVPGIGVPGIGVPGIGVPGIGVPGIGVPGIGVPGIGVPGIGVPGIGVPGIGY	binds
–	–	–	–	–	SI (diblock elastin-like polypeptide S48I48) (other, N-terminal leader; also called parent SI; source: E. coli BLR(DE3), purified by ELP-mediated phase separation) MGVPGSGVPGSGVPGSGVPGSGVPGSGVPGSGVPGSGVPGSGVPGSGVPGSGVPGSGVPGSGVPGSGVPGSGVPGSGVPGSGVPGSGVPGSGVPGSGVPGSGVPGSGVPGSGVPGSGVPGSGVPGSGVPGSGVPGSGVPGSGVPGSGVPGSGVPGSGVPGSGVPGSGVPGSGVPGSGVPGSGVPGSGVPGSGVPGSGVPGSGVPGSGVPGSGVPGSGVPGSGVPGSGVPGSGVPGSGVPGSGVPGIGVPGIGVPGIGVPGIGVPGIGVPGIGVPGIGVPGIGVPGIGVPGIGVPGIGVPGIGVPGIGVPGIGVPGIGVPGIGVPGIGVPGIGVPGIGVPGIGVPGIGVPGIGVPGIGVPGIGVPGIGVPGIGVPGIGVPGIGVPGIGVPGIGVPGIGVPGIGVPGIGVPGIGVPGIGVPGIGVPGIGVPGIGVPGIGVPGIGVPGIGVPGIGVPGIGVPGIGVPGIGVPGIGVPGIGVPGIGY	binds
